# Target: SlAVT6A (split-ubiquitin bait fusion) (tomato (Solanum lycopersicum))
# Sequence (main, as listed by the source): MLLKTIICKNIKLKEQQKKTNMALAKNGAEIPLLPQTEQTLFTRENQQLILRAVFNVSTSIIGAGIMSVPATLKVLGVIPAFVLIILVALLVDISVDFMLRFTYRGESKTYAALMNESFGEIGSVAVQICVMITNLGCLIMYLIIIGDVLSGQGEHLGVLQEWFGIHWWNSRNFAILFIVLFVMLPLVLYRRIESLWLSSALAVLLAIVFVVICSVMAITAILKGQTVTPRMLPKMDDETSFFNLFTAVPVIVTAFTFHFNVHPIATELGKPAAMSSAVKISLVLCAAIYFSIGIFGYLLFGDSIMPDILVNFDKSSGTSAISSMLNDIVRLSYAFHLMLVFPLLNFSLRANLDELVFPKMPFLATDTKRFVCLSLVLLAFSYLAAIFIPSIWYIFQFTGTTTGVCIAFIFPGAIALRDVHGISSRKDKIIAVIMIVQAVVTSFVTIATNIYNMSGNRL
substance,measurement,value
SlAVT6B (split-ubiquitin prey fusion) (from UniProt A0A3Q7FT69 1-472) (natural protein),"amino acid content in the liquid culture of yeast co-expressing SlAVT6A and SlAVT6B, relative to SlAVT6A expressed alone",21.8%
same,"efflux activity for amino acids in yeast co-expressing SlAVT6A and SlAVT6B, compared to only SlAVT6A expressing",65%

# Reference: publication PMC12376665
